From patent publication US20200347101A1 (PAI LIFE SCIENCES, published 2020)
Several values for one entry are separate records, joined by “and”; a condition that tells them apart may be missing. Equal entries are not always repeated. Where two headings read alike, the source gives them in different places.

Experiments:
[1] = molecular target: recombinant human DSG2 (human) (UniProt Q14126); experiment: SPR (Biacore 3000), JO protein immobilized, rhDSG2 flowed
[2] = molecular target: recombinant human DSG2 (human) (UniProt Q14126); experiment: SPR (Biacore 3000), hDSG2 immobilized, JO protein flowed
[3] = molecular target: recombinant human DSG2 (human) (UniProt Q14126); experiment: SPR; summary table, Affinity to DSG2 (nM)
[4] = molecular target: recombinant human DSG2 (human) (UniProt Q14126); experiment: SPR, comparison of the two formats
[5] = molecular target: DSG2 on cells (HeLa cells in the viral inhibition assay; HT29 cells in the shedding assay) (UniProt Q14126)
[6] = molecular target: DSG2 on cells (HeLa cells in the viral inhibition assay; HT29 cells in the shedding assay) (UniProt Q14126); experiment: cell-based or functional assay
[7] = molecular target: DSG2 on cells (HeLa cells in the viral inhibition assay; HT29 cells in the shedding assay) (UniProt Q14126); experiment: cell-based or functional assay; remark: listed apart in the source
[8] = molecular target: T1, DSG2 on cells (HeLa cells in the viral inhibition assay; HT29 cells in the shedding assay) (UniProt Q14126 50-1118); experiment: cell-based or functional assay
T1 sequence: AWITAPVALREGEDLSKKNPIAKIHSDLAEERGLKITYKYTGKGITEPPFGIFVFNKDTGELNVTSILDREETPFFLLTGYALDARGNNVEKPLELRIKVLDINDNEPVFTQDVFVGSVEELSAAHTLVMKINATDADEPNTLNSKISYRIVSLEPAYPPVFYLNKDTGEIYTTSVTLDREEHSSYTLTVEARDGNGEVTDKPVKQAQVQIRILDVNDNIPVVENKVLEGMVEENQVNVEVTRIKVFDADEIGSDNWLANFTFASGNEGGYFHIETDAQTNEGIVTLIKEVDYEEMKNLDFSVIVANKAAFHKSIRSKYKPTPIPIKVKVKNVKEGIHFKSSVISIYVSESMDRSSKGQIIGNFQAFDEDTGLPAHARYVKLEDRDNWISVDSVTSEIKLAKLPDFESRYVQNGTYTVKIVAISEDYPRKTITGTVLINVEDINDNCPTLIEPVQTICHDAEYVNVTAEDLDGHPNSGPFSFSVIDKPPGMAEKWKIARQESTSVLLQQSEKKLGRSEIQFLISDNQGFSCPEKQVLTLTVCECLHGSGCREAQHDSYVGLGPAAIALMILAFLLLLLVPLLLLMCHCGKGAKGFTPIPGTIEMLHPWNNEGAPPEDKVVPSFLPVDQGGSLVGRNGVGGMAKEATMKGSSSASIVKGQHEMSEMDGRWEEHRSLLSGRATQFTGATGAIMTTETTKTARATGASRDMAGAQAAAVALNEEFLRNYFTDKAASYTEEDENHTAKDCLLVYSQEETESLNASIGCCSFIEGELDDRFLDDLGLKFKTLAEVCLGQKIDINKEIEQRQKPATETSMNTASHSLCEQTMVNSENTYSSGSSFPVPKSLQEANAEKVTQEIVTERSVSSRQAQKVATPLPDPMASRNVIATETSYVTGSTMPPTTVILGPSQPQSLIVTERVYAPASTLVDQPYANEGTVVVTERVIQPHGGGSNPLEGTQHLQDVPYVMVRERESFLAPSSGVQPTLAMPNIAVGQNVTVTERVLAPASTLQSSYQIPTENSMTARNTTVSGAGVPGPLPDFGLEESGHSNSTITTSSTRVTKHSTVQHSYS

[9] = molecular target: T1, DSG2 on cells (HeLa cells in the viral …); experiment: cell-based or functional assay; remark: listed apart in the source
[10] = molecular target: T1, DSG2 on cells (HeLa cells in the viral …); experiment: cell-based or functional assay; remark: listed apart in the source
recombinant human DSG2 [11] = molecular target: T2, recombinant human DSG2 (human, UniProt Q14126 50-609); experiment: SPR, comparison of the two formats
T2 construct: also called hDSG2; rhDSG2
T2 sequence: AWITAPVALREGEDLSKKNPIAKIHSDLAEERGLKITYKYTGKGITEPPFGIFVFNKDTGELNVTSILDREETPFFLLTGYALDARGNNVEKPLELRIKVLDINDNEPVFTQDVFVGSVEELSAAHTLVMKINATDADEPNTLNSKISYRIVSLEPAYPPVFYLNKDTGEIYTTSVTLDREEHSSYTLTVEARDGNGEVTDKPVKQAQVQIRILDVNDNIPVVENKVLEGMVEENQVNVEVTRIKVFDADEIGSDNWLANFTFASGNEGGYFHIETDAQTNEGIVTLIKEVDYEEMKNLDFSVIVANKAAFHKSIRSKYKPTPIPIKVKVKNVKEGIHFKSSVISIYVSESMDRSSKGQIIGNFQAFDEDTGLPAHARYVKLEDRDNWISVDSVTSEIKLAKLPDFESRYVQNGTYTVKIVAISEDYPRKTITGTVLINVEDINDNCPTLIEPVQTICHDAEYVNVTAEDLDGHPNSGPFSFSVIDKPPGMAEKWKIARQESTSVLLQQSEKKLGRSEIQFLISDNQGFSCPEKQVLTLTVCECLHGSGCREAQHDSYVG

recombinant human DSG2 [12] = molecular target: T2, recombinant human DSG2; experiment: SPR (Biacore 3000), hDSG2 immobilized, JO protein flowed
recombinant human DSG2 [13] = molecular target: T2, recombinant human DSG2; experiment: SPR; summary table, Affinity to DSG2 (nM)
recombinant human DSG2 [14] = molecular target: T2, recombinant human DSG2; experiment: SPR (Biacore 3000), JO protein immobilized, rhDSG2 flowed
[15] = molecular target: T1, DSG2 on cells (HeLa cells in the viral …); experiment: cell-based or functional assay; remark: listed apart in the source
[16] = molecular target: T1, DSG2 on cells (HeLa cells in the viral …); experiment: cell-based or functional assay; remark: listed apart in the source
[17] = molecular target: T1, DSG2 on cells (HeLa cells in the viral …); experiment: cell-based or functional assay; remark: listed apart in the source

For “JO-4 (designed binder; other documents disagree on this pair)”, the Kd [1] was 580 pM, the koff [1] was 0.00046 s⁻¹ and the kon [1] was 790000 M⁻¹ s⁻¹. It also gave a Kd [2] of 11400 pM, a koff [2] of 0.00264 s⁻¹ and a Kd [3] of 580 pM. For the same molecule, the fold faster on-rate, JO-4 immobilized against DSG2 immobilized [4] was 3.4 fold, the fold improvement in affinity, JO-4 immobilized against DSG2 immobilized [4] was 20 fold and the fold more stable dissociation rate, JO-4 immobilized against DSG2 immobilized [4] was 5.7 fold.

Molecule JO-4 (designed binder) has an IC50 (read off the curve); VIA, oxidized (non-reduced) JO4 [5] of 0.05 µg/mL, an IC50 (read off the curve); VIA, reduced (DTT) JO4 [5] of 0.05 µg/mL and a DSG2 shedding from HT29 cells relative to PBS treated monolayers (ELISA of the medium) [6] of 1.44 fold. The VIA IC50 [6] was 0.067 µg/mL and the VIA IC50 [7] was 0.065 µg/mL.

B1: GB5 (designed binder)
chain: MRGSHHHHHHGSKNSIALKNNTLWTGPKPEANSIIEYGKQNPDSKLTLILVKNGGIVNGYVTLMGASDYVNTLFKNKNVSINVELYFDATGHILPDSSSLKTDLELKYKQTADFSARGFMPSTTAYPFVLPNAGTHNENYIFGQSYYKASDGALFPLEVTVMLNKRLPDSRTSYVMTFLWSLNAGLAPETTQATLITSPFTFSYIREDD
B1 was tested, and the “lower viral inhibition relative to JO-1 (VIA)” value [8] was 5 fold and the “VIA IC50” value [9] was 0.241 µg/mL.

B2: GB7/JOC-x (designed binder)
chain: RGSHHHHHHGSKNSIALKNNTLWTGPKPEANSIIEYGKQNPDSKLTLILVKNGGIVNGYVTLMGASDYVNTLFKNKNVSINVELYFDATGHILPDSSSLKTDLELKYKQTADFSARGFMPSTTAYPFDLPNAGTHNENYIFGQSYYKASDGALFPLEVTVMLNKRLPDSRTSYVMTFLWSLNAGLAPETTQATLITSPFTFSYIREDDGGGSGGGSGGGSC
notes: also called GB7 (ΔDD)
With B2 the “IC50 (read off the curve); VIA, unconjugated mixture JOC-x + poly(I:C)” value [10] was about 0.2 µg/mL, the “DSG2 shedding from HT29 cells relative to PBS treated monolayers (ELISA of the medium)” value [8] was 1.39 fold and the “VIA IC50” value [8] was 0.032 µg/mL and 0.055 µg/mL. For the same molecule, the “VIA, DTT-reduced against oxidized protein: decrease in viral inhibition” value [8] was 5 fold, the “loss of viral inhibition of unconjugated JOC-x in the presence of poly(I:C) (VIA)” value [8] was about 3.9 fold and the “fold reduction in affinity, GB7 immobilized against DSG2 immobilized” value (recombinant human DSG2 [11]) was 2 fold. It also gave a Kd (recombinant human DSG2 [12]) of 580 pM, a koff (recombinant human DSG2 [12]) of 0.00083 s⁻¹ and a Kd (recombinant human DSG2 [13]) of 1200 pM. The Kd (recombinant human DSG2 [14]) was 1190 pM, the koff (recombinant human DSG2 [14]) was 0.00075 s⁻¹ and the kon (recombinant human DSG2 [14]) was 630000 M⁻¹ s⁻¹. For the same molecule, the “VIA IC50” value [15] was 0.029 µg/mL, the “IC50 (read off the curve); VIA, oxidized (non-reduced) GB7 (JOC-x)” value [16] was about 0.02 µg/mL and the “IC50 (read off the curve); VIA, reduced (DTT) GB7 (JOC-x)” value [16] was about 0.2 µg/mL. For the same molecule, the “VIA IC50” value [9] was 0.032 µg/mL.

B3: JOC-DOTA (Eu) (designed binder)
chain: B2 chain
modifications: maleimido-mono-amide-DOTA conjugated to reduced JOC-x (free cysteine), complexed with europium ions
With B3 the “VIA IC50” value [8] was 0.254 µg/mL.

B4: JOC-DOTA (designed binder)
chain: B2 chain
modifications: maleimido-mono-amide-DOTA conjugated to reduced JOC-x (free cysteine)
In the case of B4, the “VIA IC50” value [8] is reported as 0.131 µg/mL.

B5: JOC-poly(I:C) conjugate (designed binder)
chain: B2 chain
modifications: poly(I:C) linked through the crosslinker SMPB to the free cysteine on JOC-x
With B5 the “IC50 of the conjugate relative to the unconjugated protein (VIA)” value [8] was about 6.3 fold and the “VIA IC50” value [8] was 0.203 µg/mL.

B6: GB10 (designed binder)
chain: MRGSHHHHHHCGSKVSALKEKVSALKEKVSALKEKVSALKEKVSALKEGSGGGSGGGSGGGSNSIALKNNTLWTGPKPEANSIIEYGKQNPDSKLTLILVKNGGIVNGYVTLMGASDYVNTLFKNKNVSINVELYFDATGHILPDSSSLKTDLELKYKQTADFSARGFMPSTTAYPFVLPNAGTHNENYIFGQSYYKASDGALFPLEVTVMLNKRLPDSRTSYVMTFLWSLNAGLAPETTQATLITSPFTFSYIREDD
For B6, the “VIA IC50” value [9] was 0.026 µg/mL.

B7: GB3 (designed binder)
chain: MRGSHHHHHHGSKVSALKEKVSALKEKVSALKEKVSALKEKVSALKEGSGGGSGGGSGGGSNSIALKNNTLWTGPKPEANSIIEYGKQNPDSKLTLILVKNGGIVNGYVTLMGASDYVNTLFKNKNVSINVELYFDATGHILPDSSSLKTDLELKYKQTADFSARGFMPSTTAYPFDLPNAGTHNENYIFGQSYYKASDGALFPLEVTVMLNKRLPDSRTSYVMTFLWSLNAGLAPETTQATLITSPFTFSYIREDDGGGSGGGSGGGSC
For B7, the “IC50 (read off the curve); VIA, oxidized (non-reduced) GB3” value [17] was about 0.03 µg/mL, the “IC50 (read off the curve); VIA, reduced (DTT) GB3” value [17] was about 0.06 µg/mL and the “DSG2 shedding from HT29 cells relative to PBS treated monolayers (ELISA of the medium)” value [8] was 1.52 fold. For the same molecule, the “VIA, DTT-reduced against oxidized protein: reduction in viral inhibition” value [8] was about 2 fold, the Kd (recombinant human DSG2 [12]) was 110 pM and the koff (recombinant human DSG2 [12]) was 0.0005 s⁻¹. For the same molecule, the Kd (recombinant human DSG2 [13]) was 110 pM, the “VIA IC50” value [15] was 0.028 µg/mL and the “VIA IC50” value [9] was 0.029 µg/mL.
